Earlier results as cited in patent US7713705B2, “Markers for differential diagnosis and methods of use thereof” (Biosite, Inc., priority 2002, dated 2010).
Read-outs that look alike come from different tables or passages of the source.

Key:
[1] = in animals
[2] = bloodstream of rats
[3] = plasma, in mice

## Platelet-derived growth factor [PDGF]
[1]
  biphasic half-life, first phase: approximately 5 minutes
  biphasic half-life, second phase: ~60 min

## Tumor necrosis factor α [TNFα]
bloodstream
  half-life: approximately 1 hours

## Prothrombin fragment 1+2 [F1+2]
plasma
  half-life: approximately 90 minutes

## Phosphoglyceric acid mutase [PGAM]
[2]
  half-life: less than 2 hours

## thrombin-ATIII complex [TAT]
bloodstream
  half-life: approximately 5 minutes

## Malondialdehyde-modified low-density lipoprotein [MDA-modified LDL]
[3]
  half-life: less than 5 minutes

## Platelet factor 4 [PF4]
plasma
  biphasic half-life, first phase: 1 min
  extended half-life, second phase: 20 min
  half-life extended by the presence of heparin: 20 to 40 min
serum
  biphasic half-life, first phase: 1 min
  extended half-life, second phase: 20 min
  half-life extended by the presence of heparin: 20 to 40 min

## Interleukin-6 [IL-6]
bloodstream
  half-life: 252 min

## S-100β: β subunit of S-100, a 21 kDa cytosolic Ca2+-binding protein; specific to the nervous system
In vivo
  biological half-life: 2 hours

## Interleukin-1β [IL-1β]
In vivo
  biphasic physiological half-life, first phase: 5 minutes
  biphasic physiological half-life, second phase: 4 hours

## C-reactive protein [CRP]
bloodstream
  half-life: approximately 19 hours

## CK-BB: brain-specific creatine kinase isoform, an 85 kDa cytosolic protein
In vivo
  half-life: 60 to 300 min

B1: neuron-specific enolase (protein, UniProt P09104 2-434, looked up)
Gamma-enolase: SIEKIWAREILDSRGNPTVEVDLYTAKGLFRAAVPSGASTGIYEALELRDGDKQRYLGKGVLKAVDHINSTIAPALISSGLSVVEQEKLDNLMLELDGTENKSKFGANAILGVSLAVCKAGAAERELPLYRHIAQLAGNSDLILPVPAFNVINGGSHAGNKLAMQEFMILPVGAESFRDAMRLGAEVYHTLKGVIKDKYGKDATNVGDEGGFAPNILENSEALELVKEAIDKAGYTEKIVIGMDVAASEFYRDGKYDLDFKSPTDPSRYITGDQLGALYQDFVRDYPVVSIEDPFDQDDWAAWSKFTANVGIQIVGDDLTVTNPKRIERAVEEKACNCLLLKVNQIGSVTEAIQACKLAQENGWGVMVSHRSGETEDTFIADLVVGLCTGQIKTGAPCRSERLAKYNQLMRIEEELGDEARFAGHNFRNPSVL
In vivo
  biological half-life: 48 hours

B2: β-thromboglobulin (protein, UniProt P02775 48-128, looked up)
Beta-thromboglobulin: GKEESLDSDLYAELRCMCIKTTSGIHPKNIQSLEVIGKGTHCNQVEVIATLKDGRKICLDPDAPRIKKIVQKKLAGDESAD
modifications: Beta-thromboglobulin
plasma
  biphasic half-life, first phase: 10 min
  extended half-life, second phase: 60 min
serum
  biphasic half-life, first phase: 10 min
  extended half-life, second phase: 60 min
